Experimental data as given in US20240067706A1.

Substrate: S proteins of SARS-CoV-2 and mutant strains thereof on pseudoviruses
Assay: cell-based or functional assay

B1: fully human monoclonal antibody 76E1 (antibody, V domains shown)
VH: EVQLVESGGGVVQPGGSLRLSCEASGFSFKDYGMHWIRQTPGKGLEWISRISGDTRGTSYVDSVKGRFIVSRDNSRNSLFLQMNSLRSEDTALYYCAALVIVAAGDDFDLWGQGTVVTVSS
VL: QSALTQPLSVSGSPGQSVTISCTGSSSDIGSYNFVSWYRQYPGKAPKVMIYEVNKRPSGVPVRFSGSKSGNTASLTVSGLQHEDEADYYCCSYGGRNNLIFGGGTKLTVL
  IC50 of pseudovirus neutralization (luciferase activity): 0.397 µg/mL
